Paper PMC4930482
Values belong to the substance of their own block, whether it stands above or below them.

Legend:
Assay in all cases: coIP
RFP-RNF26 = RFP-RNF26 (UniProt Q9BY78); settings: n = 3; parent: est. 100; read off a plot
HA-RNF26 = HA-RNF26 (UniProt Q9BY78); settings: n = 3; parent: est. 100; read off a plot
[1] = molecular target: RNF26, wild type (coIP of Figures 5A and 5B) (UniProt Q9BY78); settings: HEK293T cells; n = 3; parent: est. 100; read off a plot

percent of parent (RFP-RNF26): 14 % Co-IP
Substance: FLAG-EPS15 (from UniProt P42566) UIM*

percent of parent (HA-RNF26): 39 % Co-IP
Substance: GFP-TAX1BP1 (from UniProt Q86VP1) UBZ2*

percent of parent [1]: 13 % Co-IP
Substance: TOLLIP, wild type (coIP of Figure 5B) (from UniProt Q9H0E2) CUE*
